Laboratory results taken from the DeepSol protein solubility set.

Test: soluble on expression in E. coli; label from the status in PepcDB or PDB records

Sequence	soluble on expression in E. coli
MGSDKIHHHHHHMKQMNVVLIGGGTGLSVLARGLREFPIDITAIVTVADNGGSTGKIRDVMDIPAPGDIRNVIAALSDSESILTQLFQYRFGENQVDGHSLGNLVIAGMTNITNDFGHAIKELSKVLNIKGQVIPSTNASVQLNAVMEDGEIVHGETNIPKTHKKIDRVFLEPSDVEPMNEAIEALEQADLIVLGPGSLYTSVISNLCVKGISEALLRTSAPKLYVSNVMTQPGETDNYDVKEHIDALTRQVGEPFIDFVICSSESYSKDVLQRYEEKNSKPVAVHKEQLKDSGIRVLTASNLVEISNEHYVRHNTKVLSKMIYELALELTSTIRFTPSDKKK	not soluble
MGSDKIHHHHHHMNIKIAKNAGFCFGVKRAMKMAWDEVEKNDSGIYALGPLIHNKQAVAKYEEKGLKTVNEIDTIPNHENMIIRSHGVPENIYKEAKDKKLKIVDTTCPFVKKIHTVVSEYHNKGYEIIVIGDMKHPEVIGINGWCENSAIIIKTLEQMENMEFDNSKRYCLVAQTTINPELYISIVNKLSDKLEEIVFNDTICSATKTRQESAKELAKEVDCMIVIGGKHSSNTQKLVKVCEDLVPTFAIETKDELDVNTLKKYKNLGITAGASTPNWIIEEVVTFLENL	not soluble
ASGTTLNWTGRMLGNGTLVKEGAGTLALSGFNAHGGTVVNAGTVQISNDYGLGNGALTLNNSRLASTADIYAEAAATVNGNGTFDTANGTTLQWMGDIGGAGALVKTGAGTLLLGGDSLY	not soluble
MGSDKIHHHHHHMNELQNFNFEGNEVRTVLINDEPYFVGKDVATAIGYQNTRKAIKDHVKTKYMREERIVTPSGTQTMTVISEPGIYQLAGQSKLPTAEPFQDWIYEEVLPSIRKHGAYMTDEKIEEALLNPDTIISLATQLKNEREKVEVERNGRLIAEQRVEELQPKADYYDQILSNKGVVTVTSIAKNYGMTAPELNKLLNRLGVQYSQSGSWYLYKKYQKNGYTHTIPVPYSHRDGRPDIKPQTKWTQKGHIFIYQLLKEHGILPMIEMKDESAV	not soluble
MFVLSIALLSCTTLCAATTEWWGDLRAHLNPARQAPFYDVTYDEKVNVCPQGLHADAIPEYVYFGTMLATMTVDEHDQCLQKCAEKPRCKAVNFFHPFAYQEKGFCELLTEGQLDNPSLMRPFRKATYYEKIRCRELDDVEDVEEAAPIGSEITEKLPEDMAREKKLDMSKLMKKLSAKVKEFNGGAGGFRAAR	not soluble
VLRHISPAFAEDPLRVLRAARFMARLAPLGFSIAPETLAMMRQMAANGELNSLIPERIWKELSRSLTYTQPAAFLHTLRTVNALEVVLPELNALYGVPQHADYHPEIDTGLHQELVSDIAAKLAPGDMLIGFAALCHDLGKALTPRATWPHHPMHEQRGMAPTQQLSERLKVPRNYQQLALIACREHLNVHRLSKLHDNTVYELLQRCDAFRRPERIAQLAIVCEADYRGRYGHEDANYPQG	not soluble
MRKVTVSLIKADVGSVAGHTTVPDELKKAAEENLKNAVDSGLIIDFRVFNAGDDLELLMTHDKGVDSEEIHRLAWETFEKAAGIAKELKLYGAGQDLLKDAFSGNVRGLGPGVAEMEFTERKAEPVIAFMMDKTEPGAFNMPIFRMFADPFNTAGLVIDPTMHQGFVFEIWDIKESKRVFMRTPEEMYDILALIGGKSRFVIKRVYPKEGGKLPADEPVAVISTEKLYEVAGEYVGKDDPVALVRAQSGLPAVGEVLEPFAFPHLVSGWMRGSHNGPIMPVPFKYSKCTRFDGPPRCIAAGFQLANGKIIGPVDMFDDPAFDYTRQKAMEIAEYMRRHGPFEPHRLPSEDMEYTTLPKVLEKLKGRFEEV	not soluble
MRSIPLCQLLLLLTILSIDARPSDHFLSFSKTELCAAEPHLKVCQPNSRAQSSKIINGDGLTAERLEQLSKHSNKGFIEEEANSGRSSAASNVDDPFEDVATRAPPSSNEYEEERYSHRKHKHHHRKSHRGHHYGSPYQQYYQQQQHHDPLTYRVYPGLHPKDGRYCSDMKGMFAYTCAPSKPLRIDLVEFCKDYAAFCNVPNFHRLPGPRMGPPLTDKGVGHVDVNGHFGFGVGAVPGLEVGVGWGVDVGPIPGMGESVGVGVGLDLGIMGSKTPEAFRRGQDDPNAKGGGIVGINGGVGVKAPGTGDGVGVGTGLGVGK	not soluble
MSLKFHSPSCFLSAGEPSGDTLGSDLLRNIKELNPNIHCFGVGGPLMRKEGLEPLIRMEEFQVSGFLEVFCAVFSLYKKYRKLYKAILKENPETVFCIDFPDFHFFLIRKLRKCGYRGKIIHYVCPSIWAWRPNRKKILEKHLDTLLLILPFEKEIFKDSPLKTIYLGHPLVKTIANFQDCNAWKQQLEISDQPSVALFPGSRPGDIFRNLQVQARAFRSSSLAKSHQLLVSSCNPKYDKKILELLDKEGCHNNKIVPSKFRYQLMRDCDCALAKCGTIVLEAALNQTPTIVTCLLRPFDTFLAKYIFKIFIPAYSLPNIITGSVIFPEFIGGKHDFSPEEVAAAIDILANPIGKEKQKYACQQLLKTMTENVITPKECLQAIYAQKNREGHHHHHH	not soluble
MTESFADLFEQSLQTLEFRPGSIVRGTVVAIENGMVLVDAGLKSESPIPAEQFKNAQGVLEIAVGDEVDVALDSVEDGFGETQLSREKAKRHEAWIVLEKAYEDAETVIGIINGKVKGGFTVELNGIRAFLPGSLVDVRPVRDTAHLEYKELEFKVIKLDQKRNNVVVSRRAVIESESSAERDALLENLQEGQAVKGIVKNLTDYGAFVDLGGVDGLLHITDMAWKRVKHPSEIVNVGDEINVKVLKYDRERTRVSLGLKQLGEDPWLEISKRYPENTKLTGRVTNLTDYGCFVEIEEGVEGLVHVSEMDWTNKNIHPSKVVNLGDEVEVLVLDIDEERRRISLGLKQCKTNPWDDFATRYNKGDKVSGKIKSITDFGIFIGLDGGIDGLVHLSDISWNGTGEDAVSEYKKGDEIHAVVLSVDPERERISLGVKQTEDDPFNAYLADKKKGTIVHGTVSAVDAKGVTVELADTVEGYIRVADISRERIEDASTVYSVGDAIEAKFMGVDRKNRSISLSIKAKDEAEEKEVMATLNKQEDAVISNAMAEAFKAARKLEHHHHHH	soluble
MSLNKKIILLADDDRDDIEMFCEALEMVNENVICECAENGDQAWRMLNDNNEKPQLIFLDINMPIMNGWECLKLIKKDENYQDIPVIMISTSSHKNDMETASKLGALGYFVKPNDFNDLKSMLKIITSNEGTDEGHHHHHH	soluble
MGSDKIHHHHHHMITFDEIIPGVTDILKEYSKELDQMAPILVNRDLNGRVRLIIKDDIRGNSHAEGVLDKISKALHQRLGAHGFPPERIVLFETDMQTVLAETPCFPLDGVEGVSVADRLVTESNWSKGIAPTETVPRIVFFSIKGGVGRSTSLAAAAWALAESGKRVLVLDMDLESPGLSSSLLPQDRRPKFGITDWLVEDLVDNGDRVISDMIATSPLSRNGDIYVVPAHGADPGEYIAKLGRVWMPKVNAEGRRILWVQRLQGLLNALEDRLKPDVILLDSRAGIDEVASACVTDLGASSVLLFALDGDQTWSGYRILFRHWRQSGVVRDIRERLQVVGAMIPDVDAAGYYADLLESSWNAFSEELYDEIPAGLSANGEDYWNFDQADEAAPHYPWSIRWNRGFSAMRSLHNRFDTVDAEQVNYVFGDFLTGLAASVQNEEDER	not soluble
MSLAQDVVVGVSWSNFQEERWKTDEAAIKAELESKGAKYISADAQSSSAKQLSDVESLIAQGATALIILAQDAQAIGPAVQAAADEGIPVVGYDRLIEDSRAFYLTFDNVEVGRMQARAVLEAAPSGRYVMIKGSPTDPNADFLRGGQQEVLQAAIDKGDITIVGEAYTDGWLPANAQRNMEQILTATDNGVDAVVASNDGTAGGVVAALTAQGMEGLPVSGQDGDHAALNRVAKGTQTVSVWKDARDLGRAAARIAVSLAEGTQMNAIGGADDWTSPGGTKMNAMFLEPLPITKDNLSVVVDAGWITQETLCQGVTNGPAPCNEGHHHHHH	soluble
MEQRLLAVFDFDGTITRHDSFVPFLKFAFGQRVFSVRMARLVLPSLGYLTKRLSRDELKGRLIKAFLSGVEVQWLQQKAEAFCHSHWKRLMRPAALESIAAEIEKGAIVTLCSASPAMVLQPFADRLKVELIGTNLEVIDGKLTGLIEGSNCRCDSKVARLESVYGPLTQFRVRAWGDTRGDHELLAAAQDAHWRLFHPTWRRGRYKGPVNAKLHNPDGKDGPTR	not soluble
MGSDKIHHHHHHMTKESILTFSQSKAEPAWLQEKRLAAFDKIDDLELPRIERVKFQRWNLGDGTITESPISANVPDFTSFGENPKLVQLGTQTVLESLPAKLVEQGVVFTDFHSALEEIPQVIEKYFATALKFDEDKLSAYHTAYFNSGSVLYVPDNVEIDLPLEGIFLQDSTSNVPLNKHVLIIAGRHAKVNYLERFETIGDSDVKATANIAVEVLAQAGSQVKFAAIDRLGNNITTYISRRGRLDNDASIDWALGVMNEGNVIADFDSDLIGNGSHAELKVVAASSGRQIQGIDTRVTNYGNNSIGHILQHGVILERGTLTFNGIGHIIKGAKGADAQQESRVLMLSDKARSDANPILLIDENEVTAGHAASIGQVDPEDMYYLMSRGIDKETAERLVIRGFLGTVITEIPVKAVRDEMIAVLDEKLDKR	not soluble
GMGISNIKQLYSKWKSLQPLKPEDLKRWNDKFKLEFNYNSNHLEGNTLTYGQTKLLLMFGETSGNASLKDYEEMKAHNVGLEMIKQEAQDKERPLTESFIRELNRTILVQDYWKNAKTPDGQDIRMQIKVGEYKSRPNSVLTATGEVFSYASPEETPAFMTSLVDWYNLEADKGILTPVELAALLHYRYIRIHPFEDGNGRIARLLVNFVLHRYGYPMIVIHSEDKSNYLNILHQCDVEAGLTPSDGANATLNDILPFVNYLSSCLIRSLTLAIKAAKGESIEEEGDFDKK	soluble
ALTVRKHYTKEQARVTVVNKYPTHQIITELHRLAAGNVSEKAVAMPLEKLFKGKDIDLKIAEVSSFSVDKKEVALADGSTLTYDALVVGLGSVTAYFGIPGLEENSMVLKSAADANKVFQHVEDRVREYSKTKNEADATILIGGGGLTGVELVGELADIMPNLAKKYGVDHKEIKLKLVEAGPKILPVLPDDLIERATASLEKRGVEFLTGLPVTNVEGNVIDLKDGSKVVANTFVWTGGVQGNPLVGESGLEVNRGRATVNDFLQSTSHEDVFVAGDSAVYFGPDGRPYPPTAQIAWQMGELIGYNLFAYLEGKTLETFKPVNSGTLASLGRKDAVAIIGANSTPLKGLPASLMKEASNVRYLTHIK	not soluble
NNLLYKRWVKQRAADVDKWSDGRLGYVHIQSMGDDSFRSVYSDILGKYNNREGIVIDTRFNGGGRLHEDIEVLFSGKKYFTQVVRGREACDMPSRRWNKPSIMLTCEANYSNAHGTPWVYSHQKLGKLVGMPVPGTMTSVSWERLQDPSLVFGIPVIGYRLPDGSYLENTQLEPDIKVANSPETIVKGEDTQLKTAVEELLKELPAGKGKKH	not soluble
MGFPIPDPYVWDPSFRTFYSIIDDEHKTLFNGIFHLAIDDNADNLGELRRCTGKHFLNEQVLMQASQYQFYDEHKKEHETFIHALDNWKGDVKWAKSWYVNHIKTIDFKYKGKI	soluble
MAHHHHHHMSSKKQDASAELLSELRAVIVSGGSMGTLDEQKVRSVVEKTNESYACIQSIATNPYADLTQPYYVSSVNYYRAKCLRDKRCLLTYLLWRQKQVAKAWWSVRDNLLEGSLSAAEAKYLSDYQGIMVEYMTSFDVPLDLRAYLWRPPSVRQLEVRGRCHYEFRSSVSGKTIIINIGDQLFLSFEEAEPLIQQGIVELVGH	not soluble
MGHHHHHHSHMKRMAENELSRSVNEFLSKLQDDLKEAMNTMMCSRCQGKHRRFEMDREPKSARYCAECNRLHPAEEGDFWAESSMLGLKITYFALMDGKVYDITEWAGCQRVGISPDTHRVPYHISFGSRIPGTRGRQRATPDAPPADLQDFLSRIFQVPPGQMPMGTSLQLLSLPLEPLQPLSPTAQYPREKPNLSGGRK	not soluble
